Test [1] addresses EGFRvIII (mutant epidermal growth factor receptor) expressed by the U87MGΔEGFR cell line (UniProt P00533). As to the kind of experiment: binding of labeled mAb to EGFRvIII-positive tumor xenograft homogenate, Lindmo method (per Example 2).
Test [2] has the same target. Description: binding of radiolabeled mAb to U87MGΔEGFR cells (Scatchard analysis per Example 2).
Test [3] addresses EGFRvIII (form used in the assay not stated) (UniProt P00533). As to the kind of experiment: surface plasmon resonance.
Test [4] has the same target. As to the kind of experiment: SIPC-labeled scFv; immunoreactive fraction, antigen source not stated.
The target is the same in test [5]. Description: SIPC-labeled scFv; method not stated.

As for “^211 At-labeled L8A4 (anti-EGFRvIII mAb L8A4 labeled with N-succinimidyl 5-[^211 At]astato-3-pyridinecarboxylate, SAPC) (antibody)”, the immunoreactive fraction in test [1] fell in the range of 69 to 89%. The substance also returned a Ka in test [2] of 9.7e+08 M⁻¹.

As to “L8A4 scFv dimer with a 5 amino acid linker between the VL and VH domains”, in test [3], the Ka was found to be 5.5e+09 M⁻¹.

On to “scFv monomer based on the L8A4 variable region, labeled with SIPC”, for which the immunoreactive fraction in test [4] fell in the range of 65 to 80%. For the same substance, the Ka in test [5] is 1.5e+08 M⁻¹.

The values above are taken from patent publication US6998106.
